{"source": "patent US12221463B2", "about": "“Method of promoting wound healing by inhibiting CCR3” (The Board of Regents of the University of Oklahoma, priority 2020, dated 2025)", "molecules": {"B1": {"name": "CCL26: CCR3-specific ligand Chemokine (C-C motif) ligand 26 (eotaxin-3), Biolegend (protein)", "chain": "TRGSDISKTCCFQYSHKPLPWTWVRSYEFTSNSCSQRAVIFTTKRGKKVCTHPRKKWVQKYISLLKTPKQL"}, "B2": {"name": "CCL24: CCR3-specific ligand Chemokine (C-C motif) ligand 24 (eotaxin-2), Biolegend (protein)", "chain": "VVIPSPCCMFFVSKRIPENRVVSYQLSSRSTCLKAGVIFTTKKGQQFCGDPKQEWVQRYMKNLDAKQKKASPRARAVA"}}, "key": {"CCR3": {"biological_target": "T1, CCR3 (Homo sapiens, UniProt P51677)", "T1 sequence (P51677 1-355)": "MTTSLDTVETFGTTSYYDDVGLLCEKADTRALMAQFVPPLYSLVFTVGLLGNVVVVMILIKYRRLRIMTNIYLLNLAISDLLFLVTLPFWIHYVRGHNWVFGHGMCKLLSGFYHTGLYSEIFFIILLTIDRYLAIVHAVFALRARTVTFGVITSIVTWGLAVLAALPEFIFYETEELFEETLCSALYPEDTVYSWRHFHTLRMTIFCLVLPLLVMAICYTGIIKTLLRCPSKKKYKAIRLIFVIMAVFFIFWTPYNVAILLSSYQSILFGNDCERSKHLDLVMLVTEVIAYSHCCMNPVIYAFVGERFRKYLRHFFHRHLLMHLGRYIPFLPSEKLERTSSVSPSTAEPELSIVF", "conditions": "CCR3 agonism; Buskermolen et al. 2017; cited from earlier work"}, "HEKn [1]": {"tested_on": "HEKn", "experiment": "Cell exclusion zone assay (in vitro wound closure / migration)", "assay_type": "cell-based, human", "conditions": "16 hours", "experimental": "HEKn were seeded (2.0×10^4 per well) around the barrier of a collagen I coated Oris Cell Migration Assay 96-well plate (Platypus, West Lebanon, NH). Cells were incubated overnight to allow for cell attachment. After incubation, the circular barriers were removed (except for reference wells), and the cells were treated with either anti-CCR3 (R&D Systems, Minneapolis, MN) (2 ug/mL), IgG control (R&D Systems, Minneapolis, MN; 2 μg/mL), CCL24 (Biolegend, […], CA), CCL26 (Biolegend, San Jose, CA), or IGF (ThermoFisher, Waltham, MA; 10 ng/mL) for 16 hours. At the end of the experiment, Calcein-AM (Life Technologies, Carlsbad, CA) (2 μM) was added prior to obtaining images with a Nikon TE2000-E inverted epi-fluorescence microscope (2× objective). ImageJ (NIH) was utilized to analyze the images."}, "HEKn [2]": {"tested_on": "HEKn", "experiment": "Proliferation assay (PrestoBlue)", "assay_type": "cell-based, human", "conditions": "16 hours", "experimental": "Cells were plated on a collagen I coated 96-well plate (Corning, New York, NY) at a density of 4×10^3 cells per well, and then allowed to attach overnight. The next day, cells were treated with CCL24 (Biolegend, San Diego, CA), CCL26 (Biolegend, San Diego, CA), or IGF (ThermoFisher, Waltham, MA) for 16 hours. To assess viability, PrestoBlue (Life Technologies, Carlsbad, CA) was added according to manufacturer's protocol, and results were obtained on a microplate reader (BioTek, Winooski, VT)."}, "keratinocytes": {"tested_on": "keratinocytes", "conditions": "Kroeze et al. 2012, type IV collagen; cited from earlier work"}}}
{"molecule": "CCL28: chemokine used for CCR3 agonism in cited oral wound healing study", "values": [{"measurement": "oral wound healing", "setting": "CCR3", "value": "promote"}]}
{"molecule": "B1", "values": [{"measurement": "keratinocyte migration", "setting": "HEKn [1]", "value": "did not significantly alter"}, {"measurement": "keratinocyte proliferation", "setting": "HEKn [2]; 20 ng/mL", "value": "significantly reduced"}, {"measurement": "keratinocyte proliferation", "setting": "HEKn [2]; 50 ng/mL", "value": "significantly reduced"}, {"measurement": "keratinocyte proliferation", "setting": "HEKn [2]; 100 ng/mL", "value": "significantly reduced"}]}
{"molecule": "B2", "values": [{"measurement": "keratinocyte proliferation", "setting": "keratinocytes", "value": "promoted"}, {"measurement": "keratinocyte migration", "setting": "HEKn [1]", "value": "did not significantly alter"}, {"measurement": "keratinocyte proliferation", "setting": "HEKn [2]; 20 ng/mL", "value": "significantly reduced"}, {"measurement": "keratinocyte proliferation", "setting": "HEKn [2]; 50 ng/mL", "value": "significantly reduced"}, {"measurement": "keratinocyte proliferation", "setting": "HEKn [2]; 100 ng/mL", "value": "significantly reduced"}]}
